We go through 4 molecules from publication PMC12019173, “Liganded magnetic nanoparticles for magnetic resonance imaging of α-synuclein” (NPJ Parkinson's Disease, 2025).

What all share (conditions): both partners purified
Assay [1] has as its target T1, recombinant α-synuclein fibrils (human, UniProt P37840 1-140). Description: SPR; short, sonicated α-syn fibrils immobilised on a CM5 chip, BiaCore T200; peptides 300 nM to 10 μM in PBS; steady state analysis, 1:1 binding model; apparent Kd. Background: Surface plasmon resonance follows binding to a sensor surface in real time, without labels.
For assay [2], the target named is MSA brain-derived α-synuclein fibrils (human (endogenous in brain tissue), UniProt P37840 1-140). Description: negative-stain transmission electron microscopy; brain-derived (sarkosyl-insoluble) fibrils mixed with R8-LMNPs (3 μg/mL), 4 °C overnight, 2% uranyl acetate.
The target in assay [3] is DLB brain-derived α-synuclein fibrils (human (endogenous in brain tissue), UniProt P37840 1-140). The assay is described as above.
For assay [4], the target named is T1, recombinant α-synuclein fibrils. Description: SPR; α-syn fibrils on the SPR chip, LMNPs flowed over; LMNPs would not dissociate, no Kd calculated.

No end group written: not given here.

B1: 24mer (designed binder)
peptide: GAVVWGVTAVKKGRKKRRQRRRPQ
notes: two lysine linker; cell penetrating peptide; 24 residues; also called 24-residue peptide
B1: the Kd in assay [1] came to 3700 nM.

B2: R8-liganded magnetic nanoparticles (other)
peptide: RVGGARVWGVRKKGRKKRRQRRRPQ
modifications: also: covalently coupled to amine-functionalized dextran-coated iron oxide nanoparticle
notes: two-lysine linker; cell penetrating peptide; Multiple R8 ligands on each nanoparticle (multivalent, avidity); also called R8-LMNPs; R8-LMNP
Regarding B2, the binding result in assay [2], in assay [3] and in assay [4] was “binds” in each case.

B3: R8 (designed binder)
peptide: RVGGARVWGVRKKGRKKRRQRRRPQ
notes: two-lysine linker; cell penetrating peptide (the methods call it the Tat peptide; detected with an anti-HIV-1 tat antibody); 25 residues; also called R8 peptide; source: synthetic peptide (Genscript or LifeTein)
For the molecule B3, the Kd in assay [1] turned out to be 470 nM.

B4: 24mer-liganded magnetic nanoparticles (other)
peptide: GAVVWGVTAVKKGRKKRRQRRRPQ
modifications: also: covalently coupled to amine-functionalized dextran-coated iron oxide nanoparticle
notes: two lysine linker; cell penetrating peptide; Multivalent; also called 24mer-LMNPs
On to B4, for which the binding result in assay [4] is “binds”.
